In publication doi:10.1101/786475 (bioRxiv, 2019):

How the values were obtained:
Experiment in all cases: peptide or protein array
[1] = target: T1, Eno2p (spotted on the yeast ProtoArray) (S. cerevisiae, UniProt P00925 1-437)
T1 sequence (looked up): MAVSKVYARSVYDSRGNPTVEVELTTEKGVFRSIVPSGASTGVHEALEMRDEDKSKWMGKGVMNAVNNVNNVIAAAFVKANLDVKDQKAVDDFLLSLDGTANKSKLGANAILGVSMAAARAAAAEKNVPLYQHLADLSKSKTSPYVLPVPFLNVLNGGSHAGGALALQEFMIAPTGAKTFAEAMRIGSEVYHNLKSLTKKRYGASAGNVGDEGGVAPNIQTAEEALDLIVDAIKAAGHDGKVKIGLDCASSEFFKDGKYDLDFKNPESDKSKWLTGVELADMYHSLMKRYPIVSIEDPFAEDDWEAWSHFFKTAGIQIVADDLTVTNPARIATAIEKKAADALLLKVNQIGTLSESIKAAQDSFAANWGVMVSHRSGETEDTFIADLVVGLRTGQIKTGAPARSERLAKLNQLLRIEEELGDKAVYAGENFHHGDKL

[2] = target: T2, Qcr6p (spotted on the yeast ProtoArray) (S. cerevisiae, UniProt P00127 1-147)
T2 sequence (looked up): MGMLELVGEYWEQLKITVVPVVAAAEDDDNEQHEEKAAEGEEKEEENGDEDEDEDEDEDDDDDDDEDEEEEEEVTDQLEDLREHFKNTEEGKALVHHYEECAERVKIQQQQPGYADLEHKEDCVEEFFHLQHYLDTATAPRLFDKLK

[3] = target: T3, Emi2p (spotted on the yeast ProtoArray) (S. cerevisiae, UniProt Q04409 1-500)
T3 sequence (looked up): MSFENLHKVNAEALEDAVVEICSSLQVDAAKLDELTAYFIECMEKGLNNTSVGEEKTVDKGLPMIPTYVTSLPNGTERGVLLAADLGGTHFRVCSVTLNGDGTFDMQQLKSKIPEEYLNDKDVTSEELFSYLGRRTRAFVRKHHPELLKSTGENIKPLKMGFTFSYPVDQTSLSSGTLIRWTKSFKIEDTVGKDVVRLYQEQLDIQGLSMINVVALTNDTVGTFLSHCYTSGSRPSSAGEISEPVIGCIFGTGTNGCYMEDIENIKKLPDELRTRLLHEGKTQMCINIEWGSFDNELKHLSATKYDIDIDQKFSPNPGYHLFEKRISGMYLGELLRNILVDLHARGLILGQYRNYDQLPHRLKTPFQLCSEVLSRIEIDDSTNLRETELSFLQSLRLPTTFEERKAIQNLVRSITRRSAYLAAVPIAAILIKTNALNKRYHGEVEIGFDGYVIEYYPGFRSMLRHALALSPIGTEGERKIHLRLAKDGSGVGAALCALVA

[4] = target: T4, Cia1p (spotted on the yeast ProtoArray) (S. cerevisiae, UniProt Q05583 1-330)
T4 sequence (looked up): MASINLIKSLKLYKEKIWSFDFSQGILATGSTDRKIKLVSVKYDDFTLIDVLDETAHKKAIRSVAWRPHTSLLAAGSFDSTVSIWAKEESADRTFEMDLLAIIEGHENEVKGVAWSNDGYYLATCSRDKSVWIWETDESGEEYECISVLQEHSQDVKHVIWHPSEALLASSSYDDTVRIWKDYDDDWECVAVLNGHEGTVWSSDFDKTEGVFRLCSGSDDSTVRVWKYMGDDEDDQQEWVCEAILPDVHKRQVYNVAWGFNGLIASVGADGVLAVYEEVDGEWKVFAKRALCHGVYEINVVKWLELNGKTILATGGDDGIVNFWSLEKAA

[5] = target: T5, Ski8p (spotted on the yeast ProtoArray) (S. cerevisiae, UniProt Q02793 1-397)
T5 sequence (looked up): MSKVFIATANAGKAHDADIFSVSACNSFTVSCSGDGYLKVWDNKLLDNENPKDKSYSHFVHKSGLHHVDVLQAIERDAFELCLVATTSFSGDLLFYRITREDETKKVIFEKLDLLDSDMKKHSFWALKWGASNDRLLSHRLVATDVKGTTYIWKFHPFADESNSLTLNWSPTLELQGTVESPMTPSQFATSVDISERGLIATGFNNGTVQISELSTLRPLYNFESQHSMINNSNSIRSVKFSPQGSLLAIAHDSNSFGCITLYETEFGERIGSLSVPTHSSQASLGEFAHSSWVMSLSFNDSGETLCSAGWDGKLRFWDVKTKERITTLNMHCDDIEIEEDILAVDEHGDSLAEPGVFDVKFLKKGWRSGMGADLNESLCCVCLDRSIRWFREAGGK

[6] = target: T6, Pol30p (spotted on the yeast ProtoArray) (S. cerevisiae, UniProt P15873 1-258)
T6 sequence (looked up): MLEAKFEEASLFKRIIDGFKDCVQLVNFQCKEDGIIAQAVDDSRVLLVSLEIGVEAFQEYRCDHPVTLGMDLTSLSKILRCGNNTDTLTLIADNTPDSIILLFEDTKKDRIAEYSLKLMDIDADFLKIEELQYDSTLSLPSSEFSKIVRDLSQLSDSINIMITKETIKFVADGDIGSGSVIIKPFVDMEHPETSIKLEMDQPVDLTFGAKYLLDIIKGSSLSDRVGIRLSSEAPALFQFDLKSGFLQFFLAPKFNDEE

Measured: binding result

B1: purified and biotinylated cytoplasmic domain of the Msb2p protein (HIS-Msb2p^CYT) (domain or fragment, S. cerevisiae, UniProt P32334 1207-1306, looked up)
chain: AFKYIIRRRIQSQEIIKNPEISSISSSEFGGEKNYNNEKRMSVQESITQSMRIQNWMDDSYYGHGLTNNDSTPTRHNTSSSIPKISRPIASQNSLGWNEV
modifications: biotinylated in vitro (sites not given)
binds: all assays above
